Legend:
Assay in all cases: EC50 of free RNA motif oligo competing protein binding to immobilised probe
MRPS26 = MRPS26 (UniProt Q9BYN8)
How it was run: (§1)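 HEK293-FT lysate (2.5 mg protein/well) was treated with free RNA oligos (0 nM to 30 μM) for 1 h at 4°C, then with the same oligos on NHS-Sepharose beads for 30 min at 4°C. Bound proteins were quantified by label-free LC-MS/MS relative to the control. EC50 came from a four-parameter log-logistic fit, and Kd is EC50 times a protein-dependent depletion factor.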

RPS25 = RPS25 (UniProt P62851)
How it was run: as §1

SRSF4 = target: T1, SRSF4 (UniProt Q08170)
T1 sequence: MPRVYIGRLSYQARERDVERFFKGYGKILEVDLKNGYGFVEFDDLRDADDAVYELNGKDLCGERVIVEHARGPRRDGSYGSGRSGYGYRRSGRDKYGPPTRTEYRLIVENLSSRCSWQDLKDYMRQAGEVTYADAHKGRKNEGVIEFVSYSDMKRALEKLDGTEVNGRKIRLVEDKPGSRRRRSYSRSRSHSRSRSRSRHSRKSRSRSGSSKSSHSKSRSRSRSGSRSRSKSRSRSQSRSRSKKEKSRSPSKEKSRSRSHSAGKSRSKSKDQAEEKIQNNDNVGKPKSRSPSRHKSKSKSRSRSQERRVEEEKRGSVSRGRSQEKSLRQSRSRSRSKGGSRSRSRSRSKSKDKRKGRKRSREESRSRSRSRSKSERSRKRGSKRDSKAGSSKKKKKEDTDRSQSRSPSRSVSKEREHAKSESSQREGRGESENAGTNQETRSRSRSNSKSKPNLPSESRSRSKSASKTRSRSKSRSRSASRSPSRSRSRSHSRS
How it was run: as §1

DHX30 = target: T2, DHX30 (UniProt Q7L2E3)
T2 sequence: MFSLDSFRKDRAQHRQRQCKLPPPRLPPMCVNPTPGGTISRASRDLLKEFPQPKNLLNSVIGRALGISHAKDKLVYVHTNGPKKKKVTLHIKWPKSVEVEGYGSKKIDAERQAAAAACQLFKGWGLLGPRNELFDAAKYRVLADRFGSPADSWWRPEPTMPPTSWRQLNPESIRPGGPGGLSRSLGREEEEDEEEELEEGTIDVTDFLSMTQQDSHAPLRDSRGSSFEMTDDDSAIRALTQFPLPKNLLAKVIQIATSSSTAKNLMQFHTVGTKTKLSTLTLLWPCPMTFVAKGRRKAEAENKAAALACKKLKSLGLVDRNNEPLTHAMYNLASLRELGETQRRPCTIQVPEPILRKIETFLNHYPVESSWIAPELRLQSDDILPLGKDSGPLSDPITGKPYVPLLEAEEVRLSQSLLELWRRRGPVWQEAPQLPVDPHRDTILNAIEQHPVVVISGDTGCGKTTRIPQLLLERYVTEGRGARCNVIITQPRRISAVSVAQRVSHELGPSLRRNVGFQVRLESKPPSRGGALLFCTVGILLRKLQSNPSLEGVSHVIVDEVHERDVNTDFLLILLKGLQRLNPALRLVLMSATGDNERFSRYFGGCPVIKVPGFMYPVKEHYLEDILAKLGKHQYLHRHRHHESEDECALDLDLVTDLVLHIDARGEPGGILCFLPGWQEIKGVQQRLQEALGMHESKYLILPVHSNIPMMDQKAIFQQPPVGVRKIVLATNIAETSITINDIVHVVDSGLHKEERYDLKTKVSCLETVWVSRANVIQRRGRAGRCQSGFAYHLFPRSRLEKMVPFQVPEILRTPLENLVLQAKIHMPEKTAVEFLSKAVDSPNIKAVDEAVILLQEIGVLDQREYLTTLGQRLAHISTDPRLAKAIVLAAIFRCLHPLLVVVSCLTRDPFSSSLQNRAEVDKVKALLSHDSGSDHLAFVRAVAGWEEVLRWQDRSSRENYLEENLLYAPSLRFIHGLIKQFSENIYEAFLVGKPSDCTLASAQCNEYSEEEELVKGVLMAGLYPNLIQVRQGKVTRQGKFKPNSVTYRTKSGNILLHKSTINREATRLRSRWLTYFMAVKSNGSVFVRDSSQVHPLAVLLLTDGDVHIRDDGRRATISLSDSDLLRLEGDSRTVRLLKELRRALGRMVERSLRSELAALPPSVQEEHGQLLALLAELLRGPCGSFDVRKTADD
How it was run: as §1

RPS19 = RPS19 (UniProt P39019)
How it was run: as §1

RPS10 = RPS10 (UniProt P46783)
How it was run: as §1

PCBP2 = PCBP2 (UniProt Q15366)
Sequence of PCBP2 (Q15366 whole entry): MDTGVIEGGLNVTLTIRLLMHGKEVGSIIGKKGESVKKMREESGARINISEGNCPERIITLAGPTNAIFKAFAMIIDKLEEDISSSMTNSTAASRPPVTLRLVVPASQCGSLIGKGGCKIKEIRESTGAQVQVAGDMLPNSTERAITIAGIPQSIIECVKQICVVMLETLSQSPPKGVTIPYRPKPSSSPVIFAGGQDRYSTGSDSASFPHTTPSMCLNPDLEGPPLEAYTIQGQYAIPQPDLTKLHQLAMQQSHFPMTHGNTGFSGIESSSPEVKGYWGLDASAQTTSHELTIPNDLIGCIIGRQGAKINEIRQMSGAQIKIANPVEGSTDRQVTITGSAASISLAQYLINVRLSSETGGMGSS
How it was run: as §1

CPSF7 = target: T3, CPSF7 (UniProt Q8N684)
T3 sequence: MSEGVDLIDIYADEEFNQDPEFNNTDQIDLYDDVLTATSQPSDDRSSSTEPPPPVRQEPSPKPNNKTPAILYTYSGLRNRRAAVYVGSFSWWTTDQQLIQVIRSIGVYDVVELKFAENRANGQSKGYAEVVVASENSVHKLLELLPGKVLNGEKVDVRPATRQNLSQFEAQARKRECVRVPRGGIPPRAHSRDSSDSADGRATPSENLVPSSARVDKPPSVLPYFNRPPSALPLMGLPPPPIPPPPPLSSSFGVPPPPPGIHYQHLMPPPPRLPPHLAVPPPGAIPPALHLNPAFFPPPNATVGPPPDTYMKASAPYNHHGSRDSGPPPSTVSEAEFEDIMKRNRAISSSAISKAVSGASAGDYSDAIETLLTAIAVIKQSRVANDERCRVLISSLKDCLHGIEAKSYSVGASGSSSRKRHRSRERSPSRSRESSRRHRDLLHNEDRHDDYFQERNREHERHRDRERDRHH
How it was run: as §1

## UAUUUAU
MRPS26
  EC50: 35.1 nM

## CUGUCCU
RPS25
  EC50: 72.5 nM
SRSF4
  EC50: 978 nM
DHX30
  EC50: 113 nM
RPS19
  EC50: 176 nM
RPS10
  EC50: 226 nM
PCBP2
  EC50: 3390 nM

## AAUAAA
CPSF7
  EC50: 8820 nM

Reference: the supplement of paper PMC6379048
